Percent binding (WT = 100%) and percent decrease in binding against WT data for five substances are collected here from article PMC4676693.

Common to all, as to experiment: SPR; Biacore T200; anti-His antibody amine-coupled on a CM5 chip captures the His-tagged receptor (100 nM FcγRIa, 300 nM FcγRIIa_R131 and FcγRIIb, 200 nM FcγRIIIa_V158, 200 nM FcRn); IgG1 glycovariant, Fc-fragment or pre-incubated IgG1 complex injected as analyte (FcγRI 100 nM, FcγRIIa/b 300 nM, FcγRIIIa 200 nM); non-kinetic comparison, WT set as 100%; HBS-N (10 mM HEPES, pH 7.4, 150 mM NaCl)
(In general: SPR reads the build-up and loss of mass on a sensor chip optically.)

Experiment [1] has as its target His-tagged FcγRIIIa_V158 (human).
For experiment [2], the target named is His-tagged FcγRIIb (human) (UniProt P31994).
Experiment [3] addresses His-tagged FcγRIIa_R131 (human).
The target in another experiment is His-tagged FcγRI (human) (UniProt P12314).
Chain of UniProt P12314 (P12314 16-374): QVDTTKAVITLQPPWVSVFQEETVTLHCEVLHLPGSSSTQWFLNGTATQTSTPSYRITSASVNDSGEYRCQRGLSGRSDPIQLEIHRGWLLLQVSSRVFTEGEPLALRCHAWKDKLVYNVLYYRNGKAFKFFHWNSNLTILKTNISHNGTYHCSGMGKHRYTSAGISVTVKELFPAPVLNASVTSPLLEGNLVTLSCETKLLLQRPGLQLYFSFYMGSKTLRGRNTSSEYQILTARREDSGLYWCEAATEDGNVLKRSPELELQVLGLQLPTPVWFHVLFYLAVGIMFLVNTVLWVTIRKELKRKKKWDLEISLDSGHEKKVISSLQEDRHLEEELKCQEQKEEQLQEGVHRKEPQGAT

Chain of UniProt P31994 (P31994 43-310): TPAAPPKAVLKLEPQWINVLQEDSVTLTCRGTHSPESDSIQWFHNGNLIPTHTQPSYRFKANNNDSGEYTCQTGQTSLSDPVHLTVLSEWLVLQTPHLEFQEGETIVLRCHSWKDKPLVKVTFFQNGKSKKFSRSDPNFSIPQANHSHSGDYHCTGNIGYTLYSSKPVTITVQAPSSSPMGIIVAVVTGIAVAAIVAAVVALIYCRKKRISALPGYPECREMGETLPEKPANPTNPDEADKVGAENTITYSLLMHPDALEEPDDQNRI

The substance G0 IgG1 glycovariant (antibody) registered a percent binding (WT = 100%) in experiment [1] of 75%.
Still for that read-out and setting: in the case of G1 IgG1 glycovariant (antibody) it was 75%; in that of G1+1SA IgG1 glycovariant (antibody), 75%.
Consider M3 IgG1 glycovariant (antibody), for which the percent binding (WT = 100%) in experiment [1] is 70%; in experiment [2], 65%; in experiment [3], 45%.
In the experiment with His-tagged FcγRI (human), “deglycosylated IgG1 glycovariant (antibody)” came in with a percent decrease in binding against WT of 40%.
